In the DeepSol protein solubility set:

experiment: soluble on expression in E. coli; label from the status in PepcDB or PDB records

Row | Sequence | soluble on expression in E. coli
1 | MGSSHHHHHHSSGRENLYFQGHMNPNFLDFEQPIADLQAKIEELRLVGNDNALNISDEISRLQDKSKALTENIFGNLSSWQIAQLARHPKRPYTLDYIGYLFSDFEELHGDRHFADDPAIVGGVARLDGSPVMVIGHQKGREVREKVRRNFGMPRPEGYRKACRLMEMAERFKMPILTFIDTPGAYPGIDAEERGQSEAIAWNLRVMARLKTPIIATVIGEGGSGGALAIGVCDQLNMLQYSTYSVISPEGCASILWKTAEKAPEAAEAMGITAERLKGLGIVDKVIDEPLGGAHRDPASMAESIRGELLAQLKMLQGLEMGELLERRYDRLMSYGAP | soluble
2 | MAHHHHHHMAVASKGRIADVNQEELTKIGPKIDDVLSICLASFDSLRDMAFKFQYEQAAEKAAYQSGETKPDPMTQLMHVLQRMVDLTLGTAKAVYDQTLLEWRRRKGEGDADSPASQLASSQSMTSPEVLRNSSVEDFAAGSVAWIERGSHLSLLSLEVLSSVLLAHHYLRRDLQKYMLDVNVLDYLEKVFSMERDHELCYFPEGFKTECMRLIANLTHNNVDVNAALVERDTFLFNILSATQIDEENPGMVEWAEFALRNICESSAAAREKIRKLAPQGVTDQSREILAGRCSYSFSSTGKVQLHTQKPPLH | soluble
3 | MSLEKSGFIVHQKFDSILQLEDFDSLDRALKESESYYQKLPSNWKTQVRKTSYHKNQMLNSLKILKKILREKNPESRKIQFQNSFLLLETKDEALGRITAYYEVIIEGRFYPEGDFIYPVLETPSDLIVKKDGNKKSVGKIINEVFVPYETREELSHTSVWKKRSKAIVYVKIVDLHLAQLEGSAFVKVPDHIPFRITYSEDNGKEYQSPAESLKGICSSLIPSDLKSCILKYPKEVEMAILKNPRYIFFKLESSAPRGSGGIELIPKRSVAMDPGIPLGIPVLISFESSVLTEKNRIVFVHDRGSQITGHGRLDYFLGTGETAEYQAGKINTQGKIFLILPKIKNEGHHHHHH | soluble
4 | MTNPTRTKRCGGDVLCGIDNHFQLLLYISENHCQLETKTFFEYFLRIVNKTHDYAILENKKICISHLEHHHHHH | not soluble
5 | MSLAEKLPFRVKKHQSKLLKKLGETDMQLQYNKVDNLKIVVSKINGMIIHPGETFSFCKTVGLPTRKKGYKEGMELSFGKPRAGVGGGICQSTNLLHWLALHSPLTITERHHHSIDPFPDNGRVLPWASGAAVFYNYIDFQLTNDTSWAFQINLWLTDKLLEGEIRVNEELDFAYHVKERNHRFIKKEGAYFRTNEIWRHKIAKFRSGALLEEELMYKNYGKVMYVPKTYQEGHHHHHH | soluble
6 | MRAEVKEICKALHLAYIADRFEEVRFETKEQFLRDVLALELSCCQEAKQARLIKKAKFRELKWLKDYEWSGHIHWPATTSREELCDLRFLERKQNVLLLGSPGTGKTHLATALGIQACQQGHEVRFFRVADLVAQLEEALKNGTLGRLKRSLDTCELLILDELGYVPFQKQGSELLFHIIADCYERKSVMVTSNLEFGQWNRVFGDNRLTAALVDRLVHHAHILAFTGESYRLRNALSAIQPSSASGLEP | not soluble
7 | MNERKKSIDELLSDLGVLEEAPVEVELKESGTPEAQGDPRAFLEEFLGGLLLLLDPGHRLEVRVEGETLKAEVKGGDLGRFIGKEGRTLRAVEHLARVVLARRFGTGYRLVLDAAGYRSRAEARIRRLAEEAALTVAMTGEPLHLPPMPPGERRIVHMLLKNHPRVTTESQGEGEERHVVVYPRREAQG | soluble
8 | MLRKLWKRPHSTWNKITAVTNVSSEKTITDGQLSEKARKDVDHDVDRTIYDIPLEYCHLRIPKSRTSRSCPDPWRRYGAHVKLCEVGGWMPENRNKNSKVIVVKKGSAPPAAPRCKPLMTVEDYLGVLRK | not soluble
9 | MGSDKIHHHHHHMSTNISLFAQVIRLLPRPLIKKLSTEFQVDKHSKHFTSWQHLVSMIFSQFSSCISLREISNGLRSATGNLNHLGICTAPSKSNLSYQNEHRTSDFFRACYYALLDYFGQQGMGQGRKFRFKQPVKLLDSTTITLCLALYDWAKYTHTKGAVKLHTLLDFKTLLPEYVHISDGKGHDGKMANSIPIPAGSIVVADRGYADTALLNSWDSTQVSFVVRHPRSLKYEVIQELELPEHGHQQILVDQRVRLTGVQTQGKYTKPLRHIALYNEQHGDVVELLTNIDTLAASSIALLYRSRWLIEIFFRNLKQRLSMKAFLGTTRNAVEVQIWTALITMLLMVYLKSIAKYRWCLSNLVSSLRINTFTKMDLMQWLNEPFTPPPEPENQLF | not soluble
10 | MGSDKIHHHHHHMTIDTSFNFKSDTPAEKDPDTWSPTLAAYHKLLWSKSLPNGRVFTLEYEKPPFYLRHRSDVGEFCLSSDTVVPSFRKKTIDGVAKDEMNFGGLGYTIGGMMVFPAIPIERKWTINQARGCNRKISDRFDLTVECIRRYYSDAQSPLDDVLRRYVDFFTLFRDFAGYVEFFHLQDVVNSDFTAVKFFLPFEDFEATSPIPQSRDAYLQYRSAAIDFLNARNQRIQNWVAKNIKG | not soluble
11 | EDKYTDKYDNINLDEILANKRLLVAYVNCVMERGKCSPEGKELKEHLQDAIENGCKKCTENQEKGAYRVIEHLIKNEIEIWRELTAKYDPTGNWRKKYEDRAKAAGIVIPEE | soluble
12 | MVKDLSDMSLKELWQLFPIFLVEHKEEWEDWYEEEKERLLHLLPSQSIKSISHIGSTAVPDIWAKNIVDILLEVPEKEDLQDFKKRLLDAGYLLMSEGEKRLSFNKGYTKDGFAEKVFHLHLRYQGDNDELYFRDYLREYPEVAKDYERLKLGLWEKYEHNRDAYTDAKSDFIRKYTQKAKKNDKGKDN | not soluble
13 | MSQSRDLQGGKAFGLLKAQQEERLEGINKQFLDDPKYSNDEDLPSKLEAFKVKYMEFDLNGNGDIDIMSLKRMLEKLGVPKTHLELKRLIREVSSGSEETFSYSDFLRMMLGKRSAILRMILMYEEKNKEHKRPTGPPAKKAISELP | soluble
14 | MDSLKGMAIFATVVDKGSMAAAAQSLGMTPSAVSQQIRKLESRAQVTLLHRTTRRLTLTEAGEAFYRSCAQMLAIAEEAERRLGEWRDAPVGELRLAAPVGFSGTLITQALKPLLENHRQLRLQLFFQDERIDLVAERIDLAIRVGNLADSSLVARHLGDWSSVLCAAPAYLRQRAPINRPEQLTEVDWISLNTSNHLNHLTLSGPGGEVCKLRLEPRVAANGMLAVRQFTLDGLGVSYQPLPEVRDALNDGRLQQLLPEWRIPGLGIYAVTPRREAQPAKVKVAIEALRRAFATDGDERWS | not soluble
15 | MQNNNEFKIGNRSVGYNHEPLIICEIGINHEGSLKTAFEMVDAAYNAGAEVVKHQTHIVEDEMSDEAKQVIPGNADVSIYEIMERCALNEEDEIKLKEYVESKGMIFISTLFSRAAALRLQRMDIPAYKIGSGECNNYPLIKLVASFGKPIILSTGMNSIESIKKSVEIIREAGVPYALLHCTNIYPTPYEDVRLGGMNDLSEAFPDAIIGLSDHTLDNYACLGAVALGGSILERHFTDRMDRPGPDIVCSMNPDTFKELKQGAHALKLARGGKKDTIIAGEKPTKDFAFASVVADKDIKKGELLSGDNLWVKRPGNGDFSVNEYETLFGKVAACNIRKGAQIKKTDIE | soluble
16 | MKNVIACISSPRRVQSICDYAIWAVRRLGSELELLHVVEREQDAVPIADLSGGIWMGTQETLLKELAELDERRQQLAQEQGRQLLQAATERAREAGIQGLAGLARQGYLVDVLLELEDDARLFVMGQHDRPTKPSRLLPDQHLEAAVRALHRPVLVAG | not soluble
17 | MTKIFEAKVLAVGPEALSMIKDANMLILFGEEAPQDLADYCYKIDNKNLSGHIKKGGHLVINGNDCQITAVGSVVEKNLTGLGHITISLDGSKESSLPGTLHIQAEFPVQLEAGSLIQIFD | soluble
18 | MAHHHHHHMSVAPKRTAELLWLEQQRARQYEQHRKRVEQQKPCVDNKTPRNLSLSNKRALMEQERRKCIDEENRRLVVNMSAIMERGGGIDNKEPWRRTNGPRDAEIRRRREQQKLAEENLKLLHRLENVKPVYRLEKWEMERDENEILVDRISRYPYIPMNRRKGVGE | soluble
19 | MDVTFLTKNVQINGTQFKILLQNGQGECALIALANVLLISPAHARYAQEISRLVRGKETVTLNELVQTLADMGVQNPNGTDVDKQQLLQILPQLYSGLNINPEFNGSFEDGVEMSIFRLYNVGIVHGWIIDGDNDPNSYEHVSKYSYMGAQKVLVQSYEIQKNNAQFENSEQIQSDAPYLKSFLARSATQLTEYGLTHLREILVERSYAVLFRNDHFCTLYKNNGELFTLVTDPTYRNRKDINWQSLKSVNGSQDSYYTGNFIPTSLERTETTATGQNESYISNPFSDQNTGHVTSNQVNSGASGVQQIEDDEELARRLQEQEDMRAANNMQNGYANNGRNHQRERFERPEKNSKKNKFLPFNGSNKEKKRDKLKKNCVIM | soluble
20 | MRLTSKGRYAVTAMLDVALNSEAGPVPLADISERQGISLSYLEQLFSRLRKNGLVSSVRGPGGGYLLGKDASSIAVGEVISAVDESVDATRCQGKGGCQGGDKCLTHALWRDLSDRLTGFLNNITLGELVNNQEVLDVSGRQHTHDAPRTRTQDAIDVKLRA | soluble
21 | MSLKILIGEFAVGTDIEKSLIPEGAAMLKTLAESFVRVGHEVCYPSAGTEIGSGTALKSTADSFVQVIEREAKNCDAGLLIAPDGMLPELNRILAENTANLGCSPEAAARCADKLRCTEILKTAGINAPEIVREAEEGKKYVIKPRFGCGAEATYLVSGFENTGEFIASEYIEGEHLSVSLIAGNKPLPLTVNRQFIEFNEKKDGINPENIEVSGIKYNGSLTPYETPRRGELYETAVSAVKYLGCFGYVGVDIVLSEVPYVVDVNPRPTASIFGISRVMREEIGELLLTNRFGTLPDSVRVEGEYHFSKDMLGELFGKNEGHHHHHH | soluble
22 | MRITHLGHSCILVEAAGQRILVDPGNLSRSWRGLTDLDAILVTHRHPDHVDPEHIGALVDANSGAVVRAEEGACHEIPALDADPVAPGDVLQIGEVRIEAVGGRHAVIHRDLEPIGNVGYLIGEGLGTILYHPGDELDETPRGVDVLACPAHAPWAAMKETVDFARSVGARHGFLIHEGLLNGRGWQLSFDRHQEMVPTTFHDLRNGQPWEVPQDLEHHHHHH | not soluble
23 | MGSDKIHHHHHHMVSMIKTAQGYSSELTRDQSELTQFWSQVQQESLAIEPGITLAYGFIRHEDNRRAIVISNGRVESYLKYQELIYDCYQQGFSVYALDHRGQGLSSRLTTNPHQGHVEHFSDYVDDFKVFIERVVKPERHKELFLVGHSMGGAIATHYIHQDPTTFNAAVLSAPMYGIILPLPTVVIKQLATKMINTQPVIGSHLVATNYIIGGRDYQAISFKLNQLTHSQVRYQHYRDLYQQQPQCQLGSPTNQWLAEAIDAAKASIDMARGSPIPLLILQAGKDKIVCNQAQNKALAGLCQRIIIEGAFHEVFIETDKLRDKALKALFDFINQHSEII | not soluble
24 | MTQHQTLPQTTEGAYHYQVIRRAIELIDQTDQPISLDEIAANMGMSPAHFQRVFSRWVGVSPKRYQQYLTLGHAKTLLSERFSTLAASHAVGLSGSGRLHDLFLRWEAMSPGEFARKGAGLTIYWGWFESPFGPAIVMGTEKGICGMGFAAEMGAETAFEDLAARWPQASYVEDPMMLRPWVLQAFGAKDGALDTTPLFLIGAPFQIKVWEALLSIPTGHVTTYSEIAQAVGAPRAVRAVGTAVGRNPISWIIPCHRALRKSGGLGGYHWGIPMKRAMLAYEAVELETLEHHHHHH | not soluble
